Experiments:
[1] = system: T1, substrate sequence FVQWFSKFLGK (SEQ ID NO:3)
T1 sequence: FVQWFSKFLGK

^64Cu-GRIP B = system: T2, ^64Cu-GRIP B
T2 sequence: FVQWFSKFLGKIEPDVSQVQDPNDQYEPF

[2] = system: T3, granzyme B-cleavable restricted interaction peptide (GRIP B), full length
T3 sequence: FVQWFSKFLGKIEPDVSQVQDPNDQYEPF

[3] = system: T4, quenched fluorogenic peptide NH2-K(MCA)IEPDVSQVK(DNP)-COOH
T4 sequence: KIEPDVSQVK

Q: For MMP9, which “protease specificity (cleavage activity; enzyme 5 nM, substrate 60 µM)” value (“protease specificity” below) [1] is on record?
A: Its value is “the substrate sequence is highly specific for granzyme B compared to the other proteases tested”.

Q: How did the “protease specificity” value [1] turn out when caspase 3 was run?
A: The value was “the substrate sequence is highly specific for granzyme B compared to the other proteases tested”.

Q: How did the “protease specificity” value [1] turn out when caspase 8 was run?
A: The value was “the substrate sequence is highly specific for granzyme B compared to the other proteases tested”.

Q: Which results are given for recombinant human granzyme B?
A: proteolytic conversion on radio-HPLC (^64Cu-GRIP B): showed conversion within 30 minutes to one radiolabeled product; proteolytic cleavage [2]: full length GRIP B was efficiently cleaved by recombinant human GZMB; kcat/Km [3]: ˜8000 M^-1 sec^-1; protease specificity (cleavage activity; enzyme 5 nM, substrate 60 µM) [1]: the substrate sequence is highly specific for granzyme B compared to the other proteases tested

Q: thrombin was tested. Which “protease specificity” value [1] did it give?
A: Its value is “the substrate sequence is highly specific for granzyme B compared to the other proteases tested”.

— patent US20240238459
